B1: bsAb018 (bispecific antibody)
heavy: EIVLTQSPATLSLSPGERATLSCRASKGVSTSGYSYLHWYQQKPGQAPRLLIYLASYLESGVPARFSGSGSGTDFTLTISSLEPEDFAVYYCQHSRDLPLTFGGGTKVEIKGGGGSGGGGSGGGGSGGGGSQVQLVQSGVEVKKPGASVKVSCKASGYTFTNYYMYWVRQAPGQGLEWMGGINPSNGGTNFNEKFKNRVTLTTDSSTTTAYMELKSLQFDDTAVYYCARRDYRFDMGFDYWGQGTTVTVSSGGGGSGGGGSGGGGSGGGGSQVQLVQSGAEVKKPGASVKLSCKASGYIFTRYYMYWVKQRPGQGLEWIGEINPNNGGTKFNEKFKNRATLTVDKSISTAYMELSRLRSDDTAVYYCSREDDYDGTPFAMDYWGQGTLVTVSSASTKGPSVFPLAPSSKSTSGGTAALGCLVKDYFPEPVTVSWNSGALTSGVHTFPAVLQSSGLYSLSSVVTVPSSSLGTQTYICNVNHKPSNTKVDKRVEPKSCDKTHTCPPCPAPEFEGGPSVFLFPPKPKDTLMISRTPEVTCVVVDVSHEDPEVKFNWYVDGVEVHNAKTKPREEQYNSTYRVVSVLTVLHQDWLNGKEYKCKVSNKALPASIEKTISKAKGQPREPQVYTLPPSREEMTKNQVSLTCLVKGFYPSDIAVEWESNGQPENNYKTTPPVLDSDGSFFLYSKLTVDKSRWQQGNVFSCSVMHEALHNHYTQKSLSLSPG
light: not shown
B2: bsAb025 (bispecific antibody)
heavy: QVQLVQSGVEVKKPGASVKVSCKASGYTFTNYYMYWVRQAPGQGLEWMGGINPSNGGTNFNEKFKNRVTLTTDSSTTTAYMELKSLQFDDTAVYYCARRDYRFDMGFDYWGQGTTVTVSSASTKGPSVFPLAPSSKSTSGGTAALGCLVKDYFPEPVTVSWNSGALTSGVHTFPAVLQSSGLYSLSSVVTVPSSSLGTQTYICNVNHKPSNTKVDKKVEPKSCDKTHTGGSSGSGSGSTGTSSSGTGTSAGTTGTSASTSGSGSGGGGGSGGGGSAGGEIVLTQSPATLSLSPGERATLSCRASKGVSTSGYSYLHWYQQKPGQAPRLLIYLASYLESGVPARFSGSGSGTDFTLTISSLEPEDFAVYYCQHSRDLPLTFGGGTKVEIKRTVAAPSVFIFPPSDEQLKSGTASVVCLLNNFYPREAKVQWKVDNALQSGNSQESVTEQDSKDSTYSLSSTLTLSKADYEKHKVYACEVTHQGLSSPVTKSFNRGECGGGGSGGGGSGGGGSGGGGSQVQLVQSGAEVKKPGASVKLSCKASGYIFTRYYMYWVKQRPGQGLEWIGEINPNNGGTKFNEKFKNRATLTVDKSISTAYMELSRLRSDDTAVYYCSREDDYDGTPFAMDYWGQGTLVTVSSASTKGPSVFPLAPSSKSTSGGTAALGCLVKDYFPEPVTVSWNSGALTSGVHTFPAVLQSSGLYSLSSVVTVPSSSLGTQTYICNVNHKPSNTKVDKRVEPKSCDKTHTCPPCPAPEFEGGPSVFLFPPKPKDTLMISRTPEVTCVVVDVSHEDPEVKFNWYVDGVEVHNAKTKPREEQYNSTYRVVSVLTVLHQDWLNGKEYKCKVSNKALPASIEKTISKAKGQPREPQVYTLPPSREEMTKNQVSLTCLVKGFYPSDIAVEWESNGQPENNYKTTPPVLDSDGSFFLYSKLTVDKSRWQQGNVFSCSVMHEALHNHYTQKSLSLSPG
light: not shown
B3: bsAb033 (bispecific antibody, not shown: small tags and cut ends)
heavy (part 1 of 2): QVQLVQSGAEVKKPGASVKLSCKASGYIFTRYYMYWVKQRPGQGLEWIGEINPNNGGTKFNEKFKNRATLTVDKSISTAYMELSRLRSDDTAVYYCSREDDYDGTPFAMDYWGQGTLVTVSS
heavy (part 2 of 2): GGGGSGGGGSGGGGSGGGGSQVQLVQSGVEVKKPGASVKVSCKASGYTFTNYYMYWVRQAPGQGLEWMGGINPSNGGTNFNEKFKNRVTLTTDSSTTTAYMELKSLQFDDTAVYYCARRDYRFDMGFDYWGQGTTVTVSSGGGGSGGGGSGGGGSGGGGSEIVLTQSPATLSLSPGERATLSCRASKGVSTSGYSYLHWYQQKPGQAPRLLIYLASYLESGVPARFSGSGSGTDFTLTISSLEPEDFAVYYCQHSRDLPLTFGGGTKVEIK
heavy: B3 heavy (part 1 of 2)
light: not shown
B4: bsAb038 (bispecific antibody, not shown: small tags and cut ends)
heavy (part 1 of 2): B3 heavy (part 1 of 2)
heavy (part 2 of 2): GGGGSGGGGSGGGGSGGGGSEIVLTQSPATLSLSPGERATLSCRASKGVSTSGYSYLHWYQQKPGQAPRLLIYLASYLESGVPARFSGSGSGTDFTLTISSLEPEDFAVYYCQHSRDLPLTFGGGTKVEIKGGGGSGGGGSGGGGSGGGGSQVQLVQSGVEVKKPGASVKVSCKASGYTFTNYYMYWVRQAPGQGLEWMGGINPSNGGTNFNEKFKNRVTLTTDSSTTTAYMELKSLQFDDTAVYYCARRDYRFDMGFDYWGQGTTVTVSS
heavy: B3 heavy (part 1 of 2)
light: not shown
B5: bsAb047 (bispecific antibody, not shown: small tags and cut ends)
heavy 1: EIVLTQSPATLSLSPGERATLSCRASKGVSTSGYSYLHWYQQKPGQAPRLLIYLASYLESGVPARFSGSGSGTDFTLTISSLEPEDFAVYYCQHSRDLPLTFGGGTKVEIKGGGGSGGGGSGGGGSGGGGSQVQLVQSGVEVKKPGASVKVSCKASGYTFTNYYMYWVRQAPGQGLEWMGGINPSNGGTNFNEKFKNRVTLTTDSSTTTAYMELKSLQFDDTAVYYCARRDYRFDMGFDYWGQGTTVTVSSGGGGSGGGGSGGGGSGGGGSQVQLVQSGAEVKKPGASVKLSCKASGYIFTRYYMYWVKQRPGQGLEWIGEINPNNGGTKFNEKFKNRATLTVDKSISTAYMELSRLRSDDTAVYYCSREDDYDGTPFAMDYWGQGTLVTVSS
heavy 2: B3 heavy (part 1 of 2)
light: not shown
B6: bsAb049 (bispecific antibody, not shown: small tags and cut ends)
heavy 1: QVQLVQSGVEVKKPGASVKVSCKASGYTFTNYYMYWVRQAPGQGLEWMGGINPSNGGTNFNEKFKNRVTLTTDSSTTTAYMELKSLQFDDTAVYYCARRDYRFDMGFDYWGQGTTVTVSSGGGGSGGGGSGGGGSGGGGSEIVLTQSPATLSLSPGERATLSCRASKGVSTSGYSYLHWYQQKPGQAPRLLIYLASYLESGVPARFSGSGSGTDFTLTISSLEPEDFAVYYCQHSRDLPLTFGGGTKVEIKGGGGSGGGGSGGGGSGGGGSQVQLVQSGAEVKKPGASVKLSCKASGYIFTRYYMYWVKQRPGQGLEWIGEINPNNGGTKFNEKFKNRATLTVDKSISTAYMELSRLRSDDTAVYYCSREDDYDGTPFAMDYWGQGTLVTVSS
heavy 2: B3 heavy (part 1 of 2)
light: not shown
B7: bsAb026 (bispecific antibody)
heavy: QVQLVQSGAEVKKPGASVKLSCKASGYIFTRYYMYWVKQRPGQGLEWIGEINPNNGGTKFNEKFKNRATLTVDKSISTAYMELSRLRSDDTAVYYCSREDDYDGTPFAMDYWGQGTLVTVSSASTKGPSVFPLAPSSKSTSGGTAALGCLVKDYFPEPVTVSWNSGALTSGVHTFPAVLQSSGLYSLSSVVTVPSSSLGTQTYICNVNHKPSNTKVDKRVEPKSCDKTHTCPPCPAPEFEGGPSVFLFPPKPKDTLMISRTPEVTCVVVDVSHEDPEVKFNWYVDGVEVHNAKTKPREEQYNSTYRVVSVLTVLHQDWLNGKEYKCKVSNKALPASIEKTISKAKGQPREPQVYTLPPSREEMTKNQVSLTCLVKGFYPSDIAVEWESNGQPENNYKTTPPVLDSDGSFFLYSKLTVDKSRWQQGNVFSCSVMHEALHNHYTQKSLSLSPGGGGGSGGGGSGGGGSGGGGSQVQLVQSGVEVKKPGASVKVSCKASGYTFTNYYMYWVRQAPGQGLEWMGGINPSNGGTNFNEKFKNRVTLTTDSSTTTAYMELKSLQFDDTAVYYCARRDYRFDMGFDYWGQGTTVTVSSASTKGPSVFPLAPSSKSTSGGTAALGCLVKDYFPEPVTVSWNSGALTSGVHTFPAVLQSSGLYSLSSVVTVPSSSLGTQTYICNVNHKPSNTKVDKKVEPKSCDKTHTGGSSGSGSGSTGTSSSGTGTSAGTTGTSASTSGSGSGGGGGSGGGGSAGGEIVLTQSPATLSLSPGERATLSCRASKGVSTSGYSYLHWYQQKPGQAPRLLIYLASYLESGVPARFSGSGSGTDFTLTISSLEPEDFAVYYCQHSRDLPLTFGGGTKVEIKRTVAAPSVFIFPPSDEQLKSGTASVVCLLNNFYPREAKVQWKVDNALQSGNSQESVTEQDSKDSTYSLSSTLTLSKADYEKHKVYACEVTHQGLSSPVTKSFNRGEC
light: not shown
B8: bsAb022 (bispecific antibody)
heavy: QVQLVQSGVEVKKPGASVKVSCKASGYTFTNYYMYWVRQAPGQGLEWMGGINPSNGGTNFNEKFKNRVTLTTDSSTTTAYMELKSLQFDDTAVYYCARRDYRFDMGFDYWGQGTTVTVSSGGGGSGGGGSGGGGSGGGGSEIVLTQSPATLSLSPGERATLSCRASKGVSTSGYSYLHWYQQKPGQAPRLLIYLASYLESGVPARFSGSGSGTDFTLTISSLEPEDFAVYYCQHSRDLPLTFGGGTKVEIKGGGGSGGGGSGGGGSGGGGSQVQLVQSGAEVKKPGASVKLSCKASGYIFTRYYMYWVKQRPGQGLEWIGEINPNNGGTKFNEKFKNRATLTVDKSISTAYMELSRLRSDDTAVYYCSREDDYDGTPFAMDYWGQGTLVTVSSASTKGPSVFPLAPSSKSTSGGTAALGCLVKDYFPEPVTVSWNSGALTSGVHTFPAVLQSSGLYSLSSVVTVPSSSLGTQTYICNVNHKPSNTKVDKRVEPKSCDKTHTCPPCPAPEFEGGPSVFLFPPKPKDTLMISRTPEVTCVVVDVSHEDPEVKFNWYVDGVEVHNAKTKPREEQYNSTYRVVSVLTVLHQDWLNGKEYKCKVSNKALPASIEKTISKAKGQPREPQVYTLPPSREEMTKNQVSLTCLVKGFYPSDIAVEWESNGQPENNYKTTPPVLDSDGSFFLYSKLTVDKSRWQQGNVFSCSVMHEALHNHYTQKSLSLSPG
light: not shown

Chain of BTN3A expressed at the cell surface (human), O00481 (O00481 30-513): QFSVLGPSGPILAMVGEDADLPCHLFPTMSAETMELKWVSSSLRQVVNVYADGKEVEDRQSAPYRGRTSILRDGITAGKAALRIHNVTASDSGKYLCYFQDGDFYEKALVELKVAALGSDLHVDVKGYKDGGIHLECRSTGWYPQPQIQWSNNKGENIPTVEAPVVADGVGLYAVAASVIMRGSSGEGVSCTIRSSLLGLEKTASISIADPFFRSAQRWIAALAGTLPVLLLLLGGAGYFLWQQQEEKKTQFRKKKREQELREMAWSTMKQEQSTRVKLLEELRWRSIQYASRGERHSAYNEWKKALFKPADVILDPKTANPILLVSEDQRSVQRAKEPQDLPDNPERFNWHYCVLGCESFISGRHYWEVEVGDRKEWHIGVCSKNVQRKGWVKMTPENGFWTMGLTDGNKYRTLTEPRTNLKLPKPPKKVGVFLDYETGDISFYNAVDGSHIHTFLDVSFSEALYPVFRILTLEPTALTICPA

This experiment addresses BTN3A expressed at the cell surface (human), O00481. Put plainly: cell-based or functional assay.
In turn, B1 gave a Jurkat-Vy9Vo2 TCR MOP activation at 0.5 nM (fold-change to medium) of 1.1 and a Jurkat-Vy9Vo2 TCR MOP activation at 5 nM (fold-change to medium) of 1.7.
In turn, B2 returned a Jurkat-Vy9Vo2 TCR MOP activation at 0.5 nM (fold-change to medium) of 1 and a Jurkat-Vy9Vo2 TCR MOP activation at 5 nM (fold-change to medium) of 1.2.
B3 yielded a Jurkat-Vy9Vo2 TCR MOP activation at 0.5 nM (fold-change to medium) of 7.8 and a Jurkat-Vy9Vo2 TCR MOP activation at 5 nM (fold-change to medium) of 7.1.
B4 yielded a Jurkat-Vy9Vo2 TCR MOP activation at 0.5 nM (fold-change to medium) of 8.5 and a Jurkat-Vy9Vo2 TCR MOP activation at 5 nM (fold-change to medium) of 7.2.
B5 displayed a Jurkat-Vy9Vo2 TCR MOP activation at 0.5 nM (fold-change to medium) of 4 and a Jurkat-Vy9Vo2 TCR MOP activation at 5 nM (fold-change to medium) of 5.8.
As for B6, the Jurkat-Vy9Vo2 TCR MOP activation at 0.5 nM (fold-change to medium) came to 5.9 and the Jurkat-Vy9Vo2 TCR MOP activation at 5 nM (fold-change to medium) was 6.2.
Turning to B7, the Jurkat-Vy9Vo2 TCR MOP activation at 0.5 nM (fold-change to medium) is 2.9 and the Jurkat-Vy9Vo2 TCR MOP activation at 5 nM (fold-change to medium) came out at 1.4.
Take B8: the Jurkat-Vy9Vo2 TCR MOP activation at 0.5 nM (fold-change to medium) came out at 1.3 and the Jurkat-Vy9Vo2 TCR MOP activation at 5 nM (fold-change to medium) amounted to 1.4.

The record behind these values is US20260265379A1.
